Laboratory results taken from PMC7432094, “Flexible NAD^+ Binding in Deoxyhypusine Synthase Reflects the Dynamic Hypusine Modification of Translation Factor IF5A” (International Journal of Molecular Sciences, 2020).

Molecular target: the molecule itself
Assay: crystal structure; sitting drop, 20 °C, 100 mM phosphate-citrate pH 4.8, 32% ethanol, 5% PEG 1000; four PhoDHS molecules in the asymmetric unit, dimer of dimers with point group D2

B1: deoxyhypusine synthase from Pyrococcus horikoshii OT3 (enzyme, UniProt O50105 1-342, looked up)
chain: MKAKDIVLKKSEKIEGVEVKGPWLDDAQSLEEVVSYYYRIGFQATHLGRAIEIWRKVEEKRERGEEIRVFLGYTSNIISSGLREIIAWLVKEKKVDVIVTTAGGVEEDFIKSLKPFILGDWEVDDAELRKKGVNRIGNIFVPNDRYIEFEKYMIPFFERVLKIEEKLSRPLTASEFIYEMGRYMDEKLGKEKEKSVIYWAYKNNIPIFCPAITDGSIGDMLYFFKEERRDSRLIIDIANDIVKLNNLAITAKETASIILGGSLPKHAIINANLFRGGTDYAIYISTAVPWDGSLSGAPPREGVSWGKIKAKADYVEVWGDATLIFPILVWMVMKARGQGYAQ
notes: deoxyhypusine synthase (DHS), Pyrococcus horikoshii OT3, UniProtKB O50105, residues 1-342 (342 residues in all, 39 kDa); Homotetramer (dimer of dimers, D2); The His6 tag was removed with TEV protease at the site Glu-Asn-Leu-Tyr-Phe-Gln-Gly, so a residue of the site may remain at the N-terminus; also called PhoDHS; DHS; not shown: His6, N-terminal, cleaved
**Q.** B1 was tested. Which “stoichiometry N” value did it give?
**A.** Its value is 4.
